{"source": "patent US20240190920A1", "about": "(SHENZHEN RESEARCH INSTITUTE OF THE HONG KONG POLYTECHNIC …, published 2024)", "binders": {"B1": {"name": "i7-01s-02 (Ac-[Tat]-RLIQ(R8)REDREK(S5)RAV-NH2) (peptide)", "peptide": "Ac-YGRKKRRQRRRRLIQ[R8]REDREK[S5]RAV-NH2", "modifications": "staple 16-23", "SMILES": "CC[C@H](C)[C@H](NC(=O)[C@H](CC(C)C)NC(=O)[C@H](CCCNC(=N)N)NC(=O)[C@H](CCCNC(=N)N)NC(=O)[C@H](CCCNC(=N)N)NC(=O)[C@H](CCCNC(=N)N)NC(=O)[C@H](CCC(N)=O)NC(=O)[C@H](CCCNC(=N)N)NC(=O)[C@H](CCCNC(=N)N)NC(=O)[C@H](CCCCN)NC(=O)[C@H](CCCCN)NC(=O)[C@H](CCCNC(=N)N)NC(=O)CNC(=O)[C@H](Cc1ccc(O)cc1)NC(C)=O)C(=O)N[C@@H](CCC(N)=O)C(=O)N[C@]1(C)CCCCCCC=CCCC[C@@](C)(C(=O)N[C@@H](CCCNC(=N)N)C(=O)N[C@@H](C)C(=O)N[C@H](C(N)=O)C(C)C)NC(=O)[C@H](CCCCN)NC(=O)[C@H](CCC(=O)O)NC(=O)[C@H](CCCNC(=N)N)NC(=O)[C@H](CC(=O)O)NC(=O)[C@H](CCC(=O)O)NC(=O)[C@H](CCCNC(=N)N)NC1=O"}, "B2": {"name": "i7-01s-70 (Ac-[Tat]-RLIQ(R8)KGDVEL(S5)RKR-NH2) (peptide)", "peptide": "Ac-YGRKKRRQRRRRLIQ[R8]KGDVEL[S5]RKR-NH2", "modifications": "staple 16-23", "SMILES": "CC[C@H](C)[C@H](NC(=O)[C@H](CC(C)C)NC(=O)[C@H](CCCNC(=N)N)NC(=O)[C@H](CCCNC(=N)N)NC(=O)[C@H](CCCNC(=N)N)NC(=O)[C@H](CCCNC(=N)N)NC(=O)[C@H](CCC(N)=O)NC(=O)[C@H](CCCNC(=N)N)NC(=O)[C@H](CCCNC(=N)N)NC(=O)[C@H](CCCCN)NC(=O)[C@H](CCCCN)NC(=O)[C@H](CCCNC(=N)N)NC(=O)CNC(=O)[C@H](Cc1ccc(O)cc1)NC(C)=O)C(=O)N[C@@H](CCC(N)=O)C(=O)N[C@]1(C)CCCCCCC=CCCC[C@@](C)(C(=O)N[C@@H](CCCNC(=N)N)C(=O)N[C@@H](CCCCN)C(=O)N[C@@H](CCCNC(=N)N)C(N)=O)NC(=O)[C@H](CC(C)C)NC(=O)[C@H](CCC(=O)O)NC(=O)[C@H](C(C)C)NC(=O)[C@H](CC(=O)O)NC(=O)CNC(=O)[C@H](CCCCN)NC1=O"}, "B3": {"name": "i7-01s-64 (Ac-[Tat]-RLII(R8)QEDVEK(S5)RKR-NH2) (peptide)", "peptide": "Ac-YGRKKRRQRRRRLII[R8]QEDVEK[S5]RKR-NH2", "modifications": "staple 16-23", "SMILES": "CC[C@H](C)[C@H](NC(=O)[C@H](CC(C)C)NC(=O)[C@H](CCCNC(=N)N)NC(=O)[C@H](CCCNC(=N)N)NC(=O)[C@H](CCCNC(=N)N)NC(=O)[C@H](CCCNC(=N)N)NC(=O)[C@H](CCC(N)=O)NC(=O)[C@H](CCCNC(=N)N)NC(=O)[C@H](CCCNC(=N)N)NC(=O)[C@H](CCCCN)NC(=O)[C@H](CCCCN)NC(=O)[C@H](CCCNC(=N)N)NC(=O)CNC(=O)[C@H](Cc1ccc(O)cc1)NC(C)=O)C(=O)N[C@H](C(=O)N[C@]1(C)CCCCCCC=CCCC[C@@](C)(C(=O)N[C@@H](CCCNC(=N)N)C(=O)N[C@@H](CCCCN)C(=O)N[C@@H](CCCNC(=N)N)C(N)=O)NC(=O)[C@H](CCCCN)NC(=O)[C@H](CCC(=O)O)NC(=O)[C@H](C(C)C)NC(=O)[C@H](CC(=O)O)NC(=O)[C@H](CCC(=O)O)NC(=O)[C@H](CCC(N)=O)NC1=O)[C@@H](C)CC"}, "B4": {"name": "i7-01s-37 (Ac-[Tat]-RLIQ(R8)KEDVEK(S5)RKR-NH2) (peptide)", "peptide": "Ac-YGRKKRRQRRRRLIQ[R8]KEDVEK[S5]RKR-NH2", "modifications": "staple 16-23", "SMILES": "CC[C@H](C)[C@H](NC(=O)[C@H](CC(C)C)NC(=O)[C@H](CCCNC(=N)N)NC(=O)[C@H](CCCNC(=N)N)NC(=O)[C@H](CCCNC(=N)N)NC(=O)[C@H](CCCNC(=N)N)NC(=O)[C@H](CCC(N)=O)NC(=O)[C@H](CCCNC(=N)N)NC(=O)[C@H](CCCNC(=N)N)NC(=O)[C@H](CCCCN)NC(=O)[C@H](CCCCN)NC(=O)[C@H](CCCNC(=N)N)NC(=O)CNC(=O)[C@H](Cc1ccc(O)cc1)NC(C)=O)C(=O)N[C@@H](CCC(N)=O)C(=O)N[C@]1(C)CCCCCCC=CCCC[C@@](C)(C(=O)N[C@@H](CCCNC(=N)N)C(=O)N[C@@H](CCCCN)C(=O)N[C@@H](CCCNC(=N)N)C(N)=O)NC(=O)[C@H](CCCCN)NC(=O)[C@H](CCC(=O)O)NC(=O)[C@H](C(C)C)NC(=O)[C@H](CC(=O)O)NC(=O)[C@H](CCC(=O)O)NC(=O)[C@H](CCCCN)NC1=O"}, "B5": {"name": "i7-01s-45 (Ac-[Tat]-RLKQ(R8)LEDVEK(S5)RKR-NH2) (peptide)", "peptide": "Ac-YGRKKRRQRRRRLKQ[R8]LEDVEK[S5]RKR-NH2", "modifications": "staple 16-23", "SMILES": "CC(=O)N[C@@H](Cc1ccc(O)cc1)C(=O)NCC(=O)N[C@@H](CCCNC(=N)N)C(=O)N[C@@H](CCCCN)C(=O)N[C@@H](CCCCN)C(=O)N[C@@H](CCCNC(=N)N)C(=O)N[C@@H](CCCNC(=N)N)C(=O)N[C@@H](CCC(N)=O)C(=O)N[C@@H](CCCNC(=N)N)C(=O)N[C@@H](CCCNC(=N)N)C(=O)N[C@@H](CCCNC(=N)N)C(=O)N[C@@H](CCCNC(=N)N)C(=O)N[C@@H](CC(C)C)C(=O)N[C@@H](CCCCN)C(=O)N[C@@H](CCC(N)=O)C(=O)N[C@]1(C)CCCCCCC=CCCC[C@@](C)(C(=O)N[C@@H](CCCNC(=N)N)C(=O)N[C@@H](CCCCN)C(=O)N[C@@H](CCCNC(=N)N)C(N)=O)NC(=O)[C@H](CCCCN)NC(=O)[C@H](CCC(=O)O)NC(=O)[C@H](C(C)C)NC(=O)[C@H](CC(=O)O)NC(=O)[C@H](CCC(=O)O)NC(=O)[C@H](CC(C)C)NC1=O"}, "B6": {"name": "i7-01s-10 (Ac-[Tat]-RLIQ(R8)REDREK(S5)RAR-NH2) (peptide)", "peptide": "Ac-YGRKKRRQRRRRLIQ[R8]REDREK[S5]RAR-NH2", "modifications": "staple 16-23", "SMILES": "CC[C@H](C)[C@H](NC(=O)[C@H](CC(C)C)NC(=O)[C@H](CCCNC(=N)N)NC(=O)[C@H](CCCNC(=N)N)NC(=O)[C@H](CCCNC(=N)N)NC(=O)[C@H](CCCNC(=N)N)NC(=O)[C@H](CCC(N)=O)NC(=O)[C@H](CCCNC(=N)N)NC(=O)[C@H](CCCNC(=N)N)NC(=O)[C@H](CCCCN)NC(=O)[C@H](CCCCN)NC(=O)[C@H](CCCNC(=N)N)NC(=O)CNC(=O)[C@H](Cc1ccc(O)cc1)NC(C)=O)C(=O)N[C@@H](CCC(N)=O)C(=O)N[C@]1(C)CCCCCCC=CCCC[C@@](C)(C(=O)N[C@@H](CCCNC(=N)N)C(=O)N[C@@H](C)C(=O)N[C@@H](CCCNC(=N)N)C(N)=O)NC(=O)[C@H](CCCCN)NC(=O)[C@H](CCC(=O)O)NC(=O)[C@H](CCCNC(=N)N)NC(=O)[C@H](CC(=O)O)NC(=O)[C@H](CCC(=O)O)NC(=O)[C@H](CCCNC(=N)N)NC1=O"}, "B7": {"name": "i7-01s-58 (Ac-[Tat]-RLIE(R8)REIVEK(S5)RKR-NH2) (peptide)", "peptide": "Ac-YGRKKRRQRRRRLIE[R8]REIVEK[S5]RKR-NH2", "modifications": "staple 16-23", "SMILES": "CC[C@H](C)[C@H](NC(=O)[C@H](CC(C)C)NC(=O)[C@H](CCCNC(=N)N)NC(=O)[C@H](CCCNC(=N)N)NC(=O)[C@H](CCCNC(=N)N)NC(=O)[C@H](CCCNC(=N)N)NC(=O)[C@H](CCC(N)=O)NC(=O)[C@H](CCCNC(=N)N)NC(=O)[C@H](CCCNC(=N)N)NC(=O)[C@H](CCCCN)NC(=O)[C@H](CCCCN)NC(=O)[C@H](CCCNC(=N)N)NC(=O)CNC(=O)[C@H](Cc1ccc(O)cc1)NC(C)=O)C(=O)N[C@@H](CCC(=O)O)C(=O)N[C@]1(C)CCCCCCC=CCCC[C@@](C)(C(=O)N[C@@H](CCCNC(=N)N)C(=O)N[C@@H](CCCCN)C(=O)N[C@@H](CCCNC(=N)N)C(N)=O)NC(=O)[C@H](CCCCN)NC(=O)[C@H](CCC(=O)O)NC(=O)[C@H](C(C)C)NC(=O)[C@H]([C@@H](C)CC)NC(=O)[C@H](CCC(=O)O)NC(=O)[C@H](CCCNC(=N)N)NC1=O"}, "B8": {"name": "i7-01s-75 (Ac-[Tat]-RLIY(R8)MEDVEK(S5)RKR-NH2) (peptide)", "peptide": "Ac-YGRKKRRQRRRRLIY[R8]MEDVEK[S5]RKR-NH2", "modifications": "staple 16-23", "SMILES": "CC[C@H](C)[C@H](NC(=O)[C@H](CC(C)C)NC(=O)[C@H](CCCNC(=N)N)NC(=O)[C@H](CCCNC(=N)N)NC(=O)[C@H](CCCNC(=N)N)NC(=O)[C@H](CCCNC(=N)N)NC(=O)[C@H](CCC(N)=O)NC(=O)[C@H](CCCNC(=N)N)NC(=O)[C@H](CCCNC(=N)N)NC(=O)[C@H](CCCCN)NC(=O)[C@H](CCCCN)NC(=O)[C@H](CCCNC(=N)N)NC(=O)CNC(=O)[C@H](Cc1ccc(O)cc1)NC(C)=O)C(=O)N[C@@H](Cc1ccc(O)cc1)C(=O)N[C@]1(C)CCCCCCC=CCCC[C@@](C)(C(=O)N[C@@H](CCCNC(=N)N)C(=O)N[C@@H](CCCCN)C(=O)N[C@@H](CCCNC(=N)N)C(N)=O)NC(=O)[C@H](CCCCN)NC(=O)[C@H](CCC(=O)O)NC(=O)[C@H](C(C)C)NC(=O)[C@H](CC(=O)O)NC(=O)[C@H](CCC(=O)O)NC(=O)[C@H](CCSC)NC1=O"}, "B9": {"name": "i7-01s-57 (Ac-[Tat]-RRIQ(R8)MEDVLK(S5)RKR-NH2) (peptide)", "peptide": "Ac-YGRKKRRQRRRRRIQ[R8]MEDVLK[S5]RKR-NH2", "modifications": "staple 16-23", "SMILES": "CC[C@H](C)[C@H](NC(=O)[C@H](CCCNC(=N)N)NC(=O)[C@H](CCCNC(=N)N)NC(=O)[C@H](CCCNC(=N)N)NC(=O)[C@H](CCCNC(=N)N)NC(=O)[C@H](CCCNC(=N)N)NC(=O)[C@H](CCC(N)=O)NC(=O)[C@H](CCCNC(=N)N)NC(=O)[C@H](CCCNC(=N)N)NC(=O)[C@H](CCCCN)NC(=O)[C@H](CCCCN)NC(=O)[C@H](CCCNC(=N)N)NC(=O)CNC(=O)[C@H](Cc1ccc(O)cc1)NC(C)=O)C(=O)N[C@@H](CCC(N)=O)C(=O)N[C@]1(C)CCCCCCC=CCCC[C@@](C)(C(=O)N[C@@H](CCCNC(=N)N)C(=O)N[C@@H](CCCCN)C(=O)N[C@@H](CCCNC(=N)N)C(N)=O)NC(=O)[C@H](CCCCN)NC(=O)[C@H](CC(C)C)NC(=O)[C@H](C(C)C)NC(=O)[C@H](CC(=O)O)NC(=O)[C@H](CCC(=O)O)NC(=O)[C@H](CCSC)NC1=O"}}, "note": "Bridge positions count the residues as written; N and C are the ends. Square brackets hold non-standard residues; d marks the D form. R8 = C=CCCCCCC[C@@](C)(N)C(=O)O; S5 = C=CCCC[C@](C)(N)C(=O)O"}
{"biological_target": "T1, Beclin 1 coiled coil domain (human Beclin 1, residues 176-268) (human, UniProt Q14457 176-268)", "T1 construct": "range 176-268; also called Beclin 1 coiled coil domain protein", "T1 sequence (Q14457 176-268 limits assumed)": "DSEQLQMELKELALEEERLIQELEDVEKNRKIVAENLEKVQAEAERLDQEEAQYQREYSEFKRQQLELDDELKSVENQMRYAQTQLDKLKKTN", "assay": "ITC, peptide titrated into Beclin 1 coiled coil domain, 25 C, one-site model", "units": {"Kd": "nM"}}
{"binder": "B1", "Kd": 860}
{"binder": "B2", "Kd": 2140}
{"binder": "B3", "Kd": 356000}
{"binder": "B4", "Kd": 2410}
{"binder": "B5", "Kd": 1410}
{"binder": "B6", "Kd": 2030}
{"binder": "B7", "Kd": 610}
{"binder": "B8", "Kd": 1290}
{"binder": "B9", "Kd": 2200}
{"binder": "Ac-YGRKKRRQRRRRLISEL[R8]DREKQR[S5]A-NH2 (staple 18-25)", "note": "[Tat-SP4 (Ac-[Tat]-RLISEL(R8)DREKQR(S5)A-NH2)]", "Kd": 3210}
